Here are results for one substance from PMC9820267.

The target of this assay is PSD-95 (DLG4) (UniProt Q62108). Description: GST pull-down from cotransfected COS7 lysate. To be noted: reference: wild type (treatment condition of comparison not stated); sites T585,T612.

“PSD-93 (DLG2) PDZ3-SH3, 390-620 (from UniProt Q91XM9) T585A/T612A”: the “binding against the reference” value is given as “weaker”.
